Test results as given in article PMC9100969, “Structure-Guided Engineering of a Family IV Cold-Adapted Esterase Expands Its Substrate Range” (International Journal of Molecular Sciences, 2022).
Positions count from the first letter of the chain named. Names may count otherwise.

B1: EstN7 (Sutcliffiella cohnii; W206A) (protein)
chain: MKNRIDPELRAMLDMFPPLNLDDVQATRKAMEEAAQLTELPVDEEVVVSNRMVPGPEDNPYVRVRIYEPKEKIEKLPGLLWIHGGGYVLGAPEGDDLLCQRFVKEANCVVVSVDYRLAPEHPYPAPLEDCYAALQWFAKKVDELGVDASRIGVGGQSAGGGLTAALALLARDRKGPELCFQMPLYPMIDDKNNSPSSLEITGNLIANHDLNEKGWSMYLDGKNGTDDVPVHAAPARATDLTNLPYTYTCVGQLDPFRDETLDYVKRLCQAGVDVEFHLYPGAYHGFETLNPAAAVSQRALAEYVGAVKHVLNREKVVERK
notes: recombinant, purified from E. coli BL21(DE3); dimer; catalytic triad S157, D254, H284
B2: EstN7 (Sutcliffiella cohnii; M187A/N211A) (protein)
chain: B1 chain with M187A, A206W, N211A
notes: as for B1
B3: EstN7 (Sutcliffiella cohnii; N211A) (protein)
chain: B1 chain with A206W, N211A
notes: as for B1
B4: EstN7 (Sutcliffiella cohnii) (protein)
chain: B1 chain with A206W
notes: as for B1

Substrate: CC(=O)Oc1ccc([N+](=O)[O-])cc1
Assay: purified protein
Format: biochemical, Sutcliffiella cohnii
Conditions: 50 mM Tris-HCl pH 8.0, 20 °C

Row | Protein | Km | kcat | kcat/Km
1 | B1 | 1300 ± 140 µM | 1.5 ± 0.07 s⁻¹ | 1190 M⁻¹ s⁻¹
2 | B2 | 1100 ± 70 µM | 361 ± 0.14 s⁻¹ | 328000 M⁻¹ s⁻¹
3 | B3 | 750 ± 1 µM | 280.5 ± 0.07 s⁻¹ | 374000 M⁻¹ s⁻¹
4 | B4 | 50 ± 7 µM | 760 ± 3.5 s⁻¹ | 1.52e+07 M⁻¹ s⁻¹

Substrate: CCCC(=O)Oc1ccc([N+](=O)[O-])cc1
Assay: purified protein
Format: biochemical, Sutcliffiella cohnii
Conditions: 50 mM Tris-HCl pH 8.0, 20 °C

Row | Protein | Km | kcat | kcat/Km
5 | B1 | 1200 ± 550 µM | 8 ± 1 s⁻¹ | 6670 M⁻¹ s⁻¹
6 | B2 | 370 ± 80 µM | 17.6 ± 2.1 s⁻¹ | 46800 M⁻¹ s⁻¹
7 | B3 | 2000 ± 200 µM | 15 ± 0.5 s⁻¹ | 7500 M⁻¹ s⁻¹
8 | B4 | 57 ± 2 µM | 0.32 ± 0.005 s⁻¹ | 5610 M⁻¹ s⁻¹

Substrate: CCCCCC(=O)Oc1ccc([N+](=O)[O-])cc1
Assay: purified protein
Format: biochemical, Sutcliffiella cohnii
Conditions: 50 mM Tris-HCl pH 8.0, 20 °C

Row | Protein | Km | kcat | kcat/Km
9 | B1 | 1100 ± 70 µM | 3.8 ± 0.07 s⁻¹ | 3350 M⁻¹ s⁻¹
10 | B2 | 1200 ± 10 µM | 24.5 ± 0.7 s⁻¹ | 20400 M⁻¹ s⁻¹
11 | B3 | 370 ± 50 µM | 2.3 ± 0.2 s⁻¹ | 6280 M⁻¹ s⁻¹

Substrate: CCCCCCCC(=O)Oc1ccc([N+](=O)[O-])cc1
Assay: purified protein
Format: biochemical, Sutcliffiella cohnii
Conditions: 50 mM Tris-HCl pH 8.0, 20 °C

Row | Protein | Km | kcat | kcat/Km
12 | B2 | 950 ± 20 µM | 0.45 ± 0.02 s⁻¹ | 473 M⁻¹ s⁻¹
